# Laboratory results as given in US20060281090A1 (University of Washington, published 2006).
# What was measured:
# [1] = biological target: recombinant human coagulation factor IX (human) (UniProt P00740); test: cell-based or functional assay
# [2] = biological target: T1, recombinant human coagulation factor IX (human, UniProt P00740 47-461); test: SPR, FIX immobilized on the sensor, knob in solution
# T1 construct: also called FIX; human FIX
# T1 sequence (P00740 47-461 limits assumed): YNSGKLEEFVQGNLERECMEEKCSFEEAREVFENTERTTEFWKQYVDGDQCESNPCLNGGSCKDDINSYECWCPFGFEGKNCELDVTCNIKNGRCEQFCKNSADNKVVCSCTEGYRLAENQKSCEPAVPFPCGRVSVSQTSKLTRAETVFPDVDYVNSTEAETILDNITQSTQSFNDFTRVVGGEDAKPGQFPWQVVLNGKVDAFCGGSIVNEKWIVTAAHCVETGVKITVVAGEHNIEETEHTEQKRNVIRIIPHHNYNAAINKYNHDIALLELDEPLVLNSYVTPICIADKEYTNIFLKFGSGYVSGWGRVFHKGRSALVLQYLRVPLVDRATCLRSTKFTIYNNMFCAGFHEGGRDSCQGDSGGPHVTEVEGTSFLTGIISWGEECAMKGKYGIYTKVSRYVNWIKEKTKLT
# Chain of recombinant human coagulation factor IX (human) (P00740 47-461 limits assumed): as above
Molecule,reporter gene activities in HSPG-expressing CHO-K1 cells infected with FIX compared to infection without FIX [1] [fold],transduction of primary human hepatocytes (luciferase activity) with FIX compared to without [1] [fold],binding result [2]
"Ad5/35L virus (Ad5 capsid, long Ad5 fiber shaft, Ad35 fiber knob domain) (from UniProt P11818 1-399)",> 45,,
"Ad5F* virus (long-shafted Ad5-based vector, fiber knob aa 477 Y to A, C-terminal 6-His) (from UniProt P11818 1-581)",> 45,> 14,
"purified recombinant Ad5 fiber knob domain (other, also called Ad5 knob) DKLTLWTTPAPSPNCRLNAEKDAKLTLVLTKCGSQILATVSVLAVKGSLAPISGTVQSAHLIIRFDENGVLLNNSFLDPEYWNFRNGDLTEGTAYTNAVGFMPNLSAYPKSHGKTAKSNIVSQVYLNGDKTKPVTLTITLNGTQETGDTTPSAYSMSFSWDWSGHNYINEIFATSSYTFSYIAQE",,,binds
"purified recombinant Ad35 fiber knob domain (other, also called Ad35 knob; biotin-conjugated Ad35 fiber knob domain) SINTLWTGINPPPNCQIVENTNTNDGKLTLVLVKNGGLVNGYVSLVGVSDTVNQMFTQKTANIQLRLYFDSSGNLLTEESDLKIPLKNKSSTATSETVASSKAFMPSTTAYPFNTTTRDSENYIHGICYYMTSYDRSLFPLNISIMLNSRMISSNVAYAIQFEWNLNASESPESNIATLTTSPFFFSYITEDDN",,,binds
